Laboratory results reported in the supplement of paper PMC9112550, “Optimization of the antimicrobial peptide Bac7 by deep mutational scanning” (BMC Biology, 2022).

tested on: Escherichia coli TOP10; assay: shrunken log2 fold change of peptide-encoding DNA abundance (4.5 h post-induction vs induction); higher = less antimicrobial activity (less host growth inhibition); settings: time post-induction: 4.5 h; library: site-saturation at positions 5, 18, 19, 20
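Further: peptides expressed intracellularly from a pBAD plasmid library in pooled LB shake-flask culture, induced with 0.3% L-arabinose, DNA abundance read by NGS, three biological replicates, DESeq2 with apeglm shrinkage.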

Sequence | shrunken log2 fold change
RRIRVRPPRLPRPRPRPKDQPRP | 0.0584
RRIRVRPPRLPRPRPRPKDSPRP | -0.327
RRIRVRPPRLPRPRPRPKHWPRP | 0.151
RRIRVRPPRLPRPRPRPKIIPRP | -0.645
RRIRVRPPRLPRPRPRPKKCPRP | 0.0567
RRIRVRPPRLPRPRPRPKLLPRP | -0.0409
RRIRVRPPRLPRPRPRPKLRPRP | 0.128
RRIRVRPPRLPRPRPRPKMFPRP | -0.056
RRIRVRPPRLPRPRPRPKMIPRP | -0.162
RRIRVRPPRLPRPRPRPKMMPRP | -0.313
RRIRVRPPRLPRPRPRPKMYPRP | -0.252
RRIRVRPPRLPRPRPRPKPMPRP | 0.131
RRIRVRPPRLPRPRPRPKQMPRP | 0.114
RRIRVRPPRLPRPRPRPKRFPRP | -0.0543
RRIRVRPPRLPRPRPRPKSDPRP | -0.142
RRIRVRPPRLPRPRPRPKTGPRP | -0.048
RRIRVRPPRLPRPRPRPKVDPRP | 0.0982
RRIRVRPPRLPRPRPRPKWCPRP | 0.289
RRIRVRPPRLPRPRPRPKWPPRP | 0.4
RRIRVRPPRLPRPRPRPKYWPRP | -0.126
RRIRVRPPRLPRPRPRPLDHPRP | -0.194
RRIRVRPPRLPRPRPRPLDMPRP | -0.024
RRIRVRPPRLPRPRPRPLESPRP | 0.114
RRIRVRPPRLPRPRPRPLFFPRP | -0.121
RRIRVRPPRLPRPRPRPLFWPRP | 0.139

Sequence | shrunken log2 fold change
RRIRVRPPRLPRPRPRPLGCPRP | -0.0466
RRIRVRPPRLPRPRPRPLGEPRP | -0.162
RRIRVRPPRLPRPRPRPLHHPRP | -0.253
RRIRVRPPRLPRPRPRPLIFPRP | -0.317
RRIRVRPPRLPRPRPRPLINPRP | -0.354
RRIRVRPPRLPRPRPRPLKMPRP | -0.561
RRIRVRPPRLPRPRPRPLLEPRP | 0.0931
RRIRVRPPRLPRPRPRPLLLPRP | -0.52
RRIRVRPPRLPRPRPRPLLNPRP | 0.159
RRIRVRPPRLPRPRPRPLLWPRP | 0.145
RRIRVRPPRLPRPRPRPLMGPRP | 0.0412
RRIRVRPPRLPRPRPRPLMLPRP | -0.202
RRIRVRPPRLPRPRPRPLMYPRP | -0.564
RRIRVRPPRLPRPRPRPLNNPRP | -0.733
RRIRVRPPRLPRPRPRPLPEPRP | 0.423
RRIRVRPPRLPRPRPRPLPFPRP | -0.367
RRIRVRPPRLPRPRPRPLPSPRP | 0.244
RRIRVRPPRLPRPRPRPLQNPRP | 0.0527
RRIRVRPPRLPRPRPRPLRIPRP | 0.0616
RRIRVRPPRLPRPRPRPLRTPRP | 0.246
RRIRVRPPRLPRPRPRPLVSPRP | 0.339
RRIRVRPPRLPRPRPRPLWPPRP | 0.176
RRIRVRPPRLPRPRPRPLWTPRP | 0.0846
RRIRVRPPRLPRPRPRPLWYPRP | -0.263
RRIRVRPPRLPRPRPRPMATPRP | -0.182

Sequence | shrunken log2 fold change
RRIRVRPPRLPRPRPRPMAYPRP | -0.012
RRIRVRPPRLPRPRPRPMCLPRP | -0.0244
RRIRVRPPRLPRPRPRPMCRPRP | -0.0485
RRIRVRPPRLPRPRPRPMCYPRP | -0.306
RRIRVRPPRLPRPRPRPMDDPRP | -0.312
RRIRVRPPRLPRPRPRPMECPRP | -0.00192
RRIRVRPPRLPRPRPRPMELPRP | -0.135
RRIRVRPPRLPRPRPRPMERPRP | 0.0131
RRIRVRPPRLPRPRPRPMGVPRP | -0.0267
RRIRVRPPRLPRPRPRPMIPPRP | -0.319
RRIRVRPPRLPRPRPRPMKIPRP | -0.232
RRIRVRPPRLPRPRPRPMLHPRP | -0.192
RRIRVRPPRLPRPRPRPMMPPRP | -0.302
RRIRVRPPRLPRPRPRPMPHPRP | -0.227
RRIRVRPPRLPRPRPRPMQQPRP | 0.108
RRIRVRPPRLPRPRPRPMSKPRP | -0.0756
RRIRVRPPRLPRPRPRPMSWPRP | 0.0132
RRIRVRPPRLPRPRPRPMTLPRP | -0.0218
RRIRVRPPRLPRPRPRPMWSPRP | -0.0513
RRIRVRPPRLPRPRPRPMYWPRP | -0.0619
RRIRVRPPRLPRPRPRPNCEPRP | 3.97
RRIRVRPPRLPRPRPRPNDFPRP | -0.0485
RRIRVRPPRLPRPRPRPNHEPRP | -0.547
RRIRVRPPRLPRPRPRPNIPPRP | -0.463
RRIRVRPPRLPRPRPRPNLVPRP | -0.2

Sequence | shrunken log2 fold change
RRIRVRPPRLPRPRPRPNMGPRP | -0.11
RRIRVRPPRLPRPRPRPNNCPRP | -0.0726
RRIRVRPPRLPRPRPRPNPWPRP | -0.0698
RRIRVRPPRLPRPRPRPNQSPRP | 0.00904
RRIRVRPPRLPRPRPRPNRSPRP | -0.0169
RRIRVRPPRLPRPRPRPNSDPRP | -0.429
RRIRVRPPRLPRPRPRPNSPPRP | -0.271
RRIRVRPPRLPRPRPRPNSRPRP | 0.00966
RRIRVRPPRLPRPRPRPNSWPRP | 0.0957
RRIRVRPPRLPRPRPRPNTEPRP | -0.665
RRIRVRPPRLPRPRPRPNTIPRP | -0.571
RRIRVRPPRLPRPRPRPNTRPRP | 0.02
RRIRVRPPRLPRPRPRPNVRPRP | -0.0431
RRIRVRPPRLPRPRPRPNYHPRP | -0.489
RRIRVRPPRLPRPRPRPPCFPRP | 0.17
RRIRVRPPRLPRPRPRPPCTPRP | -0.159
RRIRVRPPRLPRPRPRPPDPPRP | 0.342
RRIRVRPPRLPRPRPRPPEEPRP | 0.0908
RRIRVRPPRLPRPRPRPPEIPRP | -0.0437
RRIRVRPPRLPRPRPRPPEKPRP | 0.0629
RRIRVRPPRLPRPRPRPPEMPRP | 0.116
RRIRVRPPRLPRPRPRPPESPRP | 0.201
RRIRVRPPRLPRPRPRPPEYPRP | -0.225
RRIRVRPPRLPRPRPRPPFGPRP | 0.298
RRIRVRPPRLPRPRPRPPFWPRP | 0.46

Sequence | shrunken log2 fold change
RRIRVRPPRLPRPRPRPPIIPRP | -0.222
RRIRVRPPRLPRPRPRPPLWPRP | 0.646
RRIRVRPPRLPRPRPRPPPKPRP | 1.11
RRIRVRPPRLPRPRPRPPRNPRP | 0.343
RRIRVRPPRLPRPRPRPPSHPRP | -0.0316
RRIRVRPPRLPRPRPRPPVQPRP | 0.377
RRIRVRPPRLPRPRPRPQDQPRP | 0.225
RRIRVRPPRLPRPRPRPQDRPRP | 0.0443
RRIRVRPPRLPRPRPRPQETPRP | 0.0431
RRIRVRPPRLPRPRPRPQFVPRP | -0.122
RRIRVRPPRLPRPRPRPQGDPRP | -0.0558
RRIRVRPPRLPRPRPRPQIKPRP | -0.455
RRIRVRPPRLPRPRPRPQIMPRP | -0.745
RRIRVRPPRLPRPRPRPQKNPRP | -0.217
RRIRVRPPRLPRPRPRPQLPPRP | -0.0715
RRIRVRPPRLPRPRPRPQPPPRP | 0.298
RRIRVRPPRLPRPRPRPQPTPRP | 0.408
RRIRVRPPRLPRPRPRPQTHPRP | 0.01
RRIRVRPPRLPRPRPRPQVLPRP | 0.00638
RRIRVRPPRLPRPRPRPQWHPRP | -0.311
RRIRVRPPRLPRPRPRPQWKPRP | -0.207
RRIRVRPPRLPRPRPRPQYDPRP | -0.729
RRIRVRPPRLPRPRPRPRADPRP | 0.43
RRIRVRPPRLPRPRPRPRAFPRP | 0.294
RRIRVRPPRLPRPRPRPRCWPRP | 0.294

Sequence | shrunken log2 fold change
RRIRVRPPRLPRPRPRPRDQPRP | -0.0604
RRIRVRPPRLPRPRPRPREYPRP | 0.0223
RRIRVRPPRLPRPRPRPRFIPRP | -0.318
RRIRVRPPRLPRPRPRPRFKPRP | 0.107
RRIRVRPPRLPRPRPRPRFVPRP | 0.12
RRIRVRPPRLPRPRPRPRGKPRP | 0.252
RRIRVRPPRLPRPRPRPRGTPRP | -0.164
RRIRVRPPRLPRPRPRPRHYPRP | 0.645
RRIRVRPPRLPRPRPRPRIVPRP | 0.166
RRIRVRPPRLPRPRPRPRKFPRP | 0.0551
RRIRVRPPRLPRPRPRPRLNPRP | -0.00875
RRIRVRPPRLPRPRPRPRLTPRP | 0.169
RRIRVRPPRLPRPRPRPRLVPRP | 1.56
RRIRVRPPRLPRPRPRPRNHPRP | 0.0133
RRIRVRPPRLPRPRPRPRNSPRP | 0.1
RRIRVRPPRLPRPRPRPRPGPRP | 0.627
RRIRVRPPRLPRPRPRPRRDPRP | 0.141
RRIRVRPPRLPRPRPRPRRVPRP | 0.256
RRIRVRPPRLPRPRPRPRRYPRP | -0.0486
RRIRVRPPRLPRPRPRPRVNPRP | -0.159
RRIRVRPPRLPRPRPRPRVWPRP | 0.736
RRIRVRPPRLPRPRPRPRWSPRP | 0.209
RRIRVRPPRLPRPRPRPRWVPRP | 0.309
RRIRVRPPRLPRPRPRPSAFPRP | 0.0827
RRIRVRPPRLPRPRPRPSCGPRP | -0.113
